# According to patent publication US11618906B2, “Hydroxylation techniques” (HYPHA DISCOVERY LTD., priority 2018, dated 2023):
# B1: aluC09M33: cytochrome P450 aluC09 mutant T291I; amino acid sequence SEQ ID NO: 44 (protein, listed as Amycolatopsis lurida)
# chain: MTDVEETTATLPLARKCPFSPPPEYERLRRESPVSRVGLPSGQTAWALTRLEDIREMLSSPHFSSDRQSPSFPLMVARQIRREDKPFRPSLIAMDPPEHSRARRDVVGEFTVKRMKALQPRIQQIVDEHLDALLAGPKPADLVQALSLPVPSLVICELLGVPYSDHEFFQSCSSRMLSREVTAEERMTAFEQLENYLDELVTKKEANATEDDLLGRQILKQRETGEADHGELVGLAFLLLIAGHETTANMISLGTVTLLENPDQLAKIKADPGKTLAAIEELLRVFTIAEIATSRFATADVEIGGTLIRAGEGVVGLSNAGNHDPDGFENPDTFDIERGARHHVAFGFGVHQCLGQNLARLELQIVFDTLFRRVPGLRIAVPVDELPFKHDSTIYGLHALPVTW
# B2: aluC09M34: cytochrome P450 aluC09 mutant T291M; amino acid sequence SEQ ID NO: 48 (protein, listed as Amycolatopsis lurida)
# chain: MTDVEETTATLPLARKCPFSPPPEYERLRRESPVSRVGLPSGQTAWALTRLEDIREMLSSPHFSSDRQSPSFPLMVARQIRREDKPFRPSLIAMDPPEHSRARRDVVGEFTVKRMKALQPRIQQIVDEHLDALLAGPKPADLVQALSLPVPSLVICELLGVPYSDHEFFQSCSSRMLSREVTAEERMTAFEQLENYLDELVTKKEANATEDDLLGRQILKQRETGEADHGELVGLAFLLLIAGHETTANMISLGTVTLLENPDQLAKIKADPGKTLAAIEELLRVFTIAEMATSRFATADVEIGGTLIRAGEGVVGLSNAGNHDPDGFENPDTFDIERGARHHVAFGFGVHQCLGQNLARLELQIVFDTLFRRVPGLRIAVPVDELPFKHDSTIYGLHALPVTW
# How the values were obtained:
# Type in all cases: biochemical
# [1] = Hydroxylation of diclofenac catalysed by cytochrome P450 aluC09 and mutants (UPLC-PDA-MS); conditions: for 4′,5-dihydroxy-diclofenac 1.38 mins / 4′-hydroxy-diclofenac (1) 1.62 mins / 5-hydroxy-diclofenac (2) 1.58 mins / Diclofenac (Substrate) 1.81 mins: % by UV peak area at 275 nm, 0.125 mg/ml substrate, 27° C., 16-20 hours; for Hydroxylated Ratio hydroxy 1:hydroxy 2: ratio of UV peak areas at 275nm
# Procedure: (§1) Lyophilised material of mutants of CYP450aluC09, ferredoxinaluF03 and ferredoxin reductaseSCF15A was made as described in examples 3 and 4 and suspended in water (0.5 mL per vial) and biocatalysis was performed at 27° C. in the following conditions: 50 mM potassium phosphate pH 7.4, 5 mM MgCl2, 0.125 mg/ml substrate compound such as diclofenac (Sigma-Aldrich, UK), Aceclofenac (Tokyo Chemical Industry UK Ltd, UK), Indomethacin (Sigma-Aldrich, UK), Flufenamic acid (Sigma-Aldrich, UK), Napropamide (Sigma-Aldrich, UK), celecoxib (LC Laboratories, USA), valsartan (Tokyo Chemical Industry UK Ltd, UK), ruxolitinib (LC Laboratories, USA), 4-pyrrolidylacetophenone (Sigma-Aldrich, UK), tofacitinib (LC Laboratories, USA), bosentan (CarboSynth Ltd, UK), buparvaquone (MedChemtronica, Sweden), BIRB796 (Stratech Scientific Limited, UK), epothilone B (LC Laboratories, USA), ritonavir (Tokyo Chemical Industry UK Ltd, UK) or tivantinib (MedChemtronica, Sweden), P450AluC09 (concentration as in Table 8), 5 mM G6P, 1 mM NADP, 2 UN/ml G6PDH in a final volume of 100 μL. After 16-20 hours at 200 rpm (5 cm orbital shaker, Kuhner AG, Switzerland), reactions were extracted with an equal volume of acetonitrile, centrifuged to remove precipitated proteins and conversion assessed by UPLC-MS analysis.
# (§2) UPLC data was obtained as follows:
# (§3) Column: Acquity UPLC BEH Shield RP18 1.7 μm 2.1 mm i.d. 50 mm length
# (§4) Solvents: H2O, B: Acetonitrile, both with 0.1% Formic acid
# (§5) Detector: Waters Acquity UPLC PDA (UV-Vis detection) and Waters Acquity UPLC QDA (MS)
# Illustrative results for the hydroxylation of diclofenac by CYP450aluC09 and selected T291x mutants are summarised below in Table 3 with representative chromatograms resented in FIG. 3a-c; retention times: diclofenac 1.85-1.88 minutes, 5-hydroxydiclofenac 1.60-1.63 minutes, 4′-hydroxydiclofenac 1.65-1.68 minutes, 4′,5-dihydroxydiclofenac 1.40-1.42 minutes. The chromatographic retention times and mass spectra coincided with those of authentic samples.
# [2] = Hydroxylation of flufenamic acid catalysed by cytochrome P450 aluC09 and mutants; conditions: for Flufenamic Acid (Substrate) 1.93 mins / Hydroxy-Flufenamic Acid (1) 1.69 mins / Hydroxy-Flufenamic Acid (2) 1.65 mins: % by UV peak area at 275 nm, 0.125 mg/ml substrate, 27° C., 16-20 hours; for Hydroxylated Ratio 1:2: flufenamic acid, ratio of UV peak areas at 275 nm
# Procedure: as §1, §2, §3, §4, §5
# Flufenamic acid elutes at 1.93 minutes, hydroxy-flufenamic acid 1 elutes at 1.68 minutes and hydroxy-flufenamic acid 2 elutes at 1.65 minutes.
# [3] = Hydroxylation of aceclofenac catalysed by cytochrome P450 aluC09 and mutants; conditions: for Aceclofenac (Substrate) (1.80 mins) / Dihydroxy-Aceclofenac (1.42 mins) / Hydroxy-Aceclofenac (1) (1.64 min) / Hydroxy-Aceclofenac (2) (1.60 min): % by UV peak area at 275 nm, 0.125 mg/ml substrate, 27° C., 16-20 hours; for Hydroxylated Ratio 2:1: aceclofenac, ratio of UV peak areas at 275 nm
# Procedure: as §1, §2, §3, §4, §5
# Chromatograms are provided in FIGS. 5a-c; aceclofenac elutes at 1.80 minutes, hydroxy-aceclofenac acid 1 elutes at 1.64 minutes, hydroxy-aceclofenac acid 2 elutes at 1.60 minutes and dihydroxy-aceclofenac elutes at 1.42 minutes.
# [4] = Hydroxylation / de-N-ethylation of napropamide catalysed by cytochrome P450 aluC09 and mutants; conditions: for Desethyl Napropamide (1.62 min) / Desethyl-hydroxy-Napropamide (1.41 min) / Hydroxy-Napropamide (1) (1.53 min) / Hydroxy-Napropamide (2), (1.52 min) / M-2Da (unidentified) (1.89 min) / Napropamide (substrate): % by UV peak area at 275 nm, 0.125 mg/ml substrate, 27° C., 16-20 hours; for Hydroxylated Ratio 2:1: napropamide, ratio of UV peak areas
# Procedure: as §1, §2, §3, §4, §5
# Napropamide elutes at 1.76 minutes, unidentified metabolite (−2 Da) elutes at 1.90 minutes, desethyl-napropamide elutes at 1.62 minutes, hydroxy-napropamide 1 elutes at 1.53 minutes and hydroxy-napropamide 2 elutes at 1.52 minutes and the desethyl-hydroxy-napropamide product elutes at 1.41 minutes.
# [5] = O-demethylation of indomethacin catalysed by cytochrome P450 aluC09 and mutants; conditions: % by UV peak area at 275 nm; 0.125 mg/ml substrate, 27° C., 16-20 hours
# Procedure: as §1, §2, §3, §4, §5
# [6] = Metabolism of ritonavir by P450 aluC09 and mutants; conditions: percent of substrate being converted; 0.125 mg/ml, 27° C., 16-20 hours; [CYP] per enzyme as in Table 8
# Procedure: as §1
# (§6) However, of particular note when considering P450 concentration are the results for mutants M12, M20 and M34, as well as the deleterious impact on the range of substrate utility in mutants M39 and M40.
# [7] = Metabolism of celecoxib by P450 aluC09 and mutants; conditions: percent of substrate being converted; 0.125 mg/ml, 27° C., 16-20 hours; [CYP] per enzyme as in Table 8
# Procedure: as §1, §6
# [8] = Metabolism of epothilone B by P450 aluC09 and mutants; conditions: percent of substrate being converted; 0.125 mg/ml, 27° C., 16-20 hours; [CYP] per enzyme as in Table 8
# Procedure: as §1, §6
# [9] = Metabolism of buparvaquone by P450 aluC09 and mutants; conditions: percent of substrate being converted; 0.125 mg/ml, 27° C., 16-20 hours; [CYP] per enzyme as in Table 8
# Procedure: as §1, §6
# [10] = Metabolism of BIRB796 by P450 aluC09 and mutants; conditions: percent of substrate being converted; 0.125 mg/ml, 27° C., 16-20 hours; [CYP] per enzyme as in Table 8
# Procedure: as §1, §6
# [11] = Metabolism of bosentan by P450 aluC09 and mutants; conditions: percent of substrate being converted; 0.125 mg/ml, 27° C., 16-20 hours; [CYP] per enzyme as in Table 8
# Procedure: as §1, §6
# [12] = Metabolism of valsartan by P450 aluC09 and mutants; conditions: percent of substrate being converted; 0.125 mg/ml, 27° C., 16-20 hours; [CYP] per enzyme as in Table 8
# Procedure: as §1, §6
# [13] = Metabolism of ruxolitinib by P450 aluC09 and mutants; conditions: percent of substrate being converted; 0.125 mg/ml, 27° C., 16-20 hours; [CYP] per enzyme as in Table 8
# Procedure: as §1, §6
# [14] = Metabolism of 4-pyrrolidylacetophenone by P450 aluC09 and mutants; conditions: percent of substrate being converted; 0.125 mg/ml, 27° C., 16-20 hours; [CYP] per enzyme as in Table 8
# Procedure: as §1, §6
# [15] = Metabolism of tivantinib by P450 aluC09 and mutants; conditions: percent of substrate being converted; 0.125 mg/ml, 27° C., 16-20 hours; [CYP] per enzyme as in Table 8
# Procedure: as §1, §6
# [16] = Metabolism of tofacitinib by P450 aluC09 and mutants; conditions: percent of substrate being converted; 0.125 mg/ml, 27° C., 16-20 hours; [CYP] per enzyme as in Table 8
# Procedure: as §1, §6
Molecule,"4′,5-dihydroxy-diclofenac 1.38 mins [1]",4′-hydroxy-diclofenac (1) 1.62 mins [1],5-hydroxy-diclofenac (2) 1.58 mins [1],Diclofenac (Substrate) 1.81 mins [1],Hydroxylated Ratio hydroxy 1:hydroxy 2 ([1]; diclofenac),Flufenamic Acid (Substrate) 1.93 mins [2],Hydroxy-Flufenamic Acid (1) 1.69 mins [2],Hydroxy-Flufenamic Acid (2) 1.65 mins [2],Hydroxylated Ratio 1:2 [2],Aceclofenac (Substrate) (1.80 mins) [3],Dihydroxy-Aceclofenac (1.42 mins) [3],Hydroxy-Aceclofenac (1) (1.64 min) [3],Hydroxy-Aceclofenac (2) (1.60 min) [3],Hydroxylated Ratio 2:1 [3],Desethyl Napropamide (1.62 min) [4],Desethyl-hydroxy-Napropamide (1.41 min) [4],Hydroxy-Napropamide (1) (1.53 min) [4],"Hydroxy-Napropamide (2), (1.52 min) [4]",M-2Da (unidentified) (1.89 min) [4],Napropamide (substrate) [4],other results
B1,1.1%,29.5%,6.7%,63.3%,4.4,98.3%,1.0%,0.6%,1.6,30.8%,8.8%,41.7%,18.6%,0.4,30.6%,5.7%,1.8%,4.1%,5.1%,56.0%,regioselectivity of hydroxylation (product ratio 4′-hydroxydiclofenac : 5-hydroxydiclofenac) ([1]; diclofenac): over four-fold; regioselectivity of hydroxylation of aceclofenac compared to the wild-type enzyme [3]: reversal of the regioselectivity; Hydroxylated Ratio 2:1 [4]: 2.3; Indomethacin (1.74 mins) [5]: 92.8%; O-demethyl-Indomethacin (1.52 mins) [5]: 7.2%; % conversions (avg) Ritonavir [6]: 41.3%; % conversions (avg) Celecoxib [7]: 2.8%; % conversions (avg) Epothilone B [8]: 21.8%; % conversions (avg) Buparvaquone [9]: 8.2%; % conversions (avg) BIRB796 [10]: 13.5%; % conversions (avg) Bosentan [11]: 98.9%; % conversions (avg) Valsartan [12]: 12.4%; % conversions (avg) Ruxolitinib [13]: 30.6%; % conversions (avg) 4-pyrrolidylacetophenone [14]: 7.9%; % conversions (avg) Tivantinib [15]: 29.6%; % conversions (avg) Tofacitinib [16]: 1.1%
B2,1.3%,35.3%,10.4%,53.6%,3.4,94.0%,3.8%,2.2%,1.7,36.6%,21.3%,15.2%,26.8%,1.8,40.7%,5.3%,3.4%,3.7%,5.3%,44.0%,Hydroxylated Ratio 2:1 [4]: 1.1; Indomethacin (1.74 mins) [5]: 96.2%; O-demethyl-Indomethacin (1.52 mins) [5]: 3.8%; % conversions (avg) Ritonavir [6]: 50.3%; % conversions (avg) Celecoxib [7]: 6.8%; % conversions (avg) Epothilone B [8]: 30.7%; % conversions (avg) Buparvaquone [9]: 11.6%; % conversions (avg) BIRB796 [10]: 18%; % conversions (avg) Bosentan [11]: 99%; % conversions (avg) Valsartan [12]: 43.2%; % conversions (avg) 4-pyrrolidylacetophenone [14]: 7.3%; % conversions (avg) Tivantinib [15]: 59.1%; % conversions (avg) Tofacitinib [16]: 3.1%
